According to the supplement of paper PMC10126150:
± gives the standard deviation of the averaged measurements.

Test system: ATP
Experiment: switch fluorescence ratio, 500 uM ATP over buffer (Cy3 cluster intensity, sum of 5 cycles each) (fold (ratio)); higher = stronger signal-on switching upon ATP binding; sequences stand for … in TCGTCGGCAGCGTCAGATGTGTATAAGAGACAGTTTTTTTTTTTTTTTTTTTTTTTTT…TC
Conditions: aptamer strand: ATP DNA aptamer (quencher-CACCTGGGGGAGTATTGCGGAGGAAGG + anchor), 100 nM annealed; ATP concentration: 500 uM
How it was run: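 Between each of five buffer/ATP cycles, the flow-cell was stripped with NaOH and re-annealed. Each cycle imaged Cy3-labelled switching-strand clusters, annealed to 100 nM quencher-labelled ATP aptamer on a modified Illumina MiSeq flow-cell, first in selection buffer and then after 15 min with 500 uM ATP at 22 °C. The fluorescence ratio is summed target-cycle over summed buffer-cycle Cy3 intensity per cluster, averaged per switch-domain sequence, with clusters outside 100-1000 RFU excluded.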
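Also: ATP exposure 15 min at 22 °C before imaging.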

Sequence | switch fluorescence ratio
CAATTAAACC | 1.05 ± 0.028
CAATTACTAG | 1.01 ± 0.029
CAATTGGGGG | 0.9968 ± 0.0078
CAATTTCTGG | 0.973 ± 0.015
CAATTTTGCT | 0.98 ± 0.019
CAATTTTTAG | 1.01 ± 0.023
CAATTTTTCA | 1 ± 0.069
CACAAGGGCA | 1.028 ± 0.0061
CACAATATCT | 1.124 ± 0.0037
CACACCGGCA | 1.093 ± 0.0043
CACACTCGCT | 1.01 ± 0.024
CACAGTAAAC | 1.25 ± 0.11
CACATAAAAG | 0.987 ± 0.027
CACATCACTT | 1.43 ± 0.27
CACCAGGGCA | 1.54 ± 0.066
CACCCGTGCT | 1.09 ± 0.016
CACCGGAGGG | 1.25 ± 0.4
CACCTAAAAT | 1.03 ± 0.037
CACCTCATAA | 1.06 ± 0.011
CACCTCGGAC | 1.139 ± 0.0092
CACCTCTTAC | 1.271 ± 0.0029
CACCTGCCCC | 1.347 ± 0.011
CACCTTTACA | 1.16 ± 0.034
CACGAAAGGA | 1.07 ± 0.033
CACGAGCGTT | 1.011 ± 0.0049

Sequence | switch fluorescence ratio
CACGAGGGAG | 0.982 ± 0.022
CACGATTACT | 1.281 ± 0.0018
CACGCCTTAT | 1.034 ± 0.0043
CACGGAAGGA | 1.065 ± 0.0079
CACGGACCTA | 1.363 ± 0.012
CACGGGCCCT | 1.02 ± 0.017
CACGGGGCTT | 1.02 ± 0.021
CACGGGGGAG | 1.005 ± 0.0096
CACGGTTTCT | 1.09 ± 0.13
CACGTCAACT | 1.32 ± 0.06
CACGTCGGTA | 1.01 ± 0.015
CACGTGGGAG | 1.04 ± 0.023
CACGTTAGTT | 1.06 ± 0.06
CACTAAATGT | 1 ± 0.035
CACTAGCGGA | 1.05 ± 0.023
CACTAGGGGG | 1.05 ± 0.0083
CACTGAGATG | 1.01 ± 0.03
CACTGCTTTA | 1.02 ± 0.037
CACTGGGATT | 1.01 ± 0.018
CACTGTCTGT | 0.98 ± 0.028
CACTGTCTT | 0.991 ± 0.019
CACTGTGACA | 1.083 ± 0.0052
CACTTCCTTA | 1.098 ± 0.0081
CACTTCGCCA | 2.12 ± 0.17
CACTTCTGGC | 1.03 ± 0.011

Sequence | switch fluorescence ratio
CACTTGATGT | 0.996 ± 0.023
CACTTGGTGG | 0.96 ± 0.038
CACTTTGTTT | 1.01 ± 0.066
CACTTTTGTA | 1.01 ± 0.012
CAGAAAAAAG | 1.01 ± 0.028
CAGAAAAGCT | 1.07 ± 0.034
CAGAACAAAA | 1.03 ± 0.035
CAGAACCAGG | 1.24 ± 0.06
CAGAAGACAG | 0.995 ± 0.071
CAGAAGGGTG | 1.02 ± 0.011
CAGAATTGAG | 0.995 ± 0.0026
CAGACGTAGG | 1.01 ± 0.056
CAGAGCCATA | 1.05 ± 0.013
CAGAGGAGTT | 1.01 ± 0.051
CAGAGGGC | 1.04 ± 0.04
CAGAGTAGGT | 1.02 ± 0.048
CAGAGTATCG | 1 ± 0.021
CAGAGTCGGT | 1 ± 0.024
CAGATCTGAA | 0.952 ± 0.07
CAGATGCCTC | 1.012 ± 0.0086
CAGATTATTT | 0.99 ± 0.015
CAGATTTGCT | 0.983 ± 0.013
CAGCAAATGG | 1.47 ± 0.26
CAGCACAGAT | 1.015 ± 0.0019
CAGCATTGGG | 0.978 ± 0.038

Sequence | switch fluorescence ratio
CAGCCCGATC | 1.22 ± 0.032
CAGCCCTTGA | 1.024 ± 0.0083
CAGCCGGGGA | 1.02 ± 0.019
CAGCGAGGTC | 1.05 ± 0.012
CAGCGCGTGC | 1.01 ± 0.051
CAGCGGGCGA | 1.01 ± 0.032
CAGCGGGGCA | 1.017 ± 0.0072
CAGCGGGGGG | 1.01 ± 0.034
CAGCGGGGTG | 1.11 ± 0.15
CAGCGTCTTT | 0.994 ± 0.012
CAGCGTGGGG | 1.022 ± 0.0092
CAGCTAAAGT | 1.009 ± 0.0017
CAGCTATGTG | 0.973 ± 0.011
CAGCTGGGGT | 1.01 ± 0.039
CAGCTTGGA | 1.01 ± 0.029
CAGCTTTTCG | 0.998 ± 0.046
CAGGACATTA | 0.994 ± 0.058
CAGGAGTACA | 1.03 ± 0.012
CAGGAGTAGC | 1.05 ± 0.018
CAGGAGTTGA | 1.01 ± 0.025
CAGGCATGCG | 1.01 ± 0.037
CAGGCGTTGC | 1.17 ± 0.19
CAGGCTTGG | 0.994 ± 0.011
CAGGCTTGTA | 1.004 ± 0.0098
CAGGGAAAAC | 1.03 ± 0.034

Sequence | switch fluorescence ratio
CAGGGAAAAG | 0.991 ± 0.032
CAGGGAAGCG | 0.991 ± 0.018
CAGGGACAAT | 1.04 ± 0.023
CAGGGAGAAT | 1.01 ± 0.019
CAGGGAGCTG | 1.01 ± 0.027
CAGGGATAGG | 1.019 ± 0.0092
CAGGGATGCT | 1.02 ± 0.035
CAGGGATGGG | 0.961 ± 0.023
CAGGGCAAGC | 1.36 ± 0.057
CAGGGCAGGG | 0.951 ± 0.028
CAGGGCCATA | 1.02 ± 0.0042
CAGGGCGTTT | 1.01 ± 0.028
CAGGGCTCCC | 1.01 ± 0.02
CAGGGGAAGC | 0.999 ± 0.011
CAGGGGAAGG | 1.04 ± 0.053
CAGGGGAGAG | 0.999 ± 0.027
CAGGGGATAT | 0.993 ± 0.046
CAGGGGATTG | 1.11 ± 0.14
CAGGGGCCAA | 0.979 ± 0.017
CAGGGGCGGC | 0.923 ± 0.064
CAGGGGCTTC | 1.02 ± 0.018
CAGGGGGGAA | 1.024 ± 0.0064
CAGGGGGGCT | 1.04 ± 0.057
CAGGGGGGTG | 1.01 ± 0.051
CAGGGGGTAA | 1.01 ± 0.069

Sequence | switch fluorescence ratio
CAGGGGGTTG | 0.9866 ± 0.0018
CAGGGGTCGT | 1.03 ± 0.038
CAGGGGTTAG | 0.9927 ± 0.0026
CAGGGGTTAT | 1.01 ± 0.015
CAGGGTATGA | 1.007 ± 0.0046
CAGGGTCGGC | 0.993 ± 0.035
CAGGGTGATA | 1.06 ± 0.071
CAGGGTGGGA | 1.02 ± 0.044
CAGGGTTATT | 0.995 ± 0.02
CAGGGTTGTT | 0.992 ± 0.026
CAGGTAAATT | 0.975 ± 0.03
CAGGTAATAG | 1.17 ± 0.028
CAGGTAGATC | 1.04 ± 0.05
CAGGTATTCA | 1.0177 ± 8.3e-05
CAGGTATTGA | 1 ± 0.03
CAGGTCCGCT | 1.12 ± 0.036
CAGGTCGTT | 1.01 ± 0.054
CAGGTCTGTG | 1.025 ± 0.0022
CAGGTTAAGG | 1.01 ± 0.018
CAGGTTGAAG | 0.9631 ± 0.0069
CAGGTTGTTT | 1.23 ± 0.45
CAGGTTTAGG | 1.01 ± 0.021
CAGGTTTGGT | 0.984 ± 0.021
CAGGTTTTCT | 0.9968 ± 0.0018
CAGTAAAGTG | 0.998 ± 0.017

Sequence | switch fluorescence ratio
CAGTAATAGG | 1.07 ± 0.0075
CAGTAATGCG | 0.99757 ± 0.00094
CAGTACCGGA | 0.9935 ± 0.0044
CAGTAGAGGT | 0.9766 ± 0.0042
CAGTAGGCCA | 1.01 ± 0.032
CAGTAGGTGG | 1 ± 0.028
CAGTAGTCGA | 1.03 ± 0.014
CAGTATTCGG | 1 ± 0.015
CAGTCAAGGG | 1.01 ± 0.013
CAGTCACTTG | 1.01 ± 0.029
CAGTCCCCTT | 1.33 ± 0.44
CAGTCGGGCT | 0.974 ± 0.02
CAGTCGGGTT | 1.03 ± 0.079
CAGTCTTATT | 0.9712 ± 0.0087
CAGTCTTTTA | 0.957 ± 0.035
CAGTGACAGT | 1.028 ± 0.0014
CAGTGACGGT | 1.03 ± 0.021
CAGTGATACG | 1.16 ± 0.036
CAGTGCGCCT | 0.996 ± 0.036
CAGTGCGGAG | 0.999 ± 0.016
CAGTGCGGCA | 1.038 ± 0.0027
CAGTGGAGCC | 1.01 ± 0.034
CAGTGGGGGG | 1.01 ± 0.039
CAGTGGGGTG | 0.993 ± 0.03
CAGTGTAGTC | 1.02 ± 0.057

Sequence | switch fluorescence ratio
CAGTGTATTT | 1.01 ± 0.038
CAGTGTGTAT | 0.989 ± 0.013
CAGTGTTATG | 0.97 ± 0.014
CAGTGTTGGC | 1 ± 0.016
CAGTTCGGAA | 1.07 ± 0.027
CAGTTGCGCA | 0.996 ± 0.034
CAGTTGGGTA | 0.98 ± 0.028
CAGTTTAGTT | 0.987 ± 0.072
CAGTTTCGGG | 1.004 ± 0.01
CAGTTTGTTC | 0.987 ± 0.022
CAGTTTTATT | 0.992 ± 0.022
CATAAACGCG | 1.003 ± 0.0088
CATAAAGGAG | 1.01 ± 0.016
CATAACGCCT | 1.09 ± 0.027
CATAACGGTT | 0.98 ± 0.025
CATAACTTGG | 1.011 ± 0.002
CATAAGATGC | 1.03 ± 0.027
CATAAGGGTT | 1.13 ± 0.17
CATAAGGTCG | 1.03 ± 0.083
CATAATAACC | 1.03 ± 0.018
CATAATATTG | 0.991 ± 0.011
CATACAGGGG | 1.44 ± 0.067
CATACCCAAA | 1.05 ± 0.039
CATACGGGGG | 1.03 ± 0.025
CATACGTGCG | 1 ± 0.042
